According to the Human Domainome abundance scans (Beltran et al. 2025):

B1: Transcription factor SOX-11, residues 50 to 117; numbered along this chain, P35716 (parent)
chain: KRPMNAFMVWSKIERRKIMEQSPDMHNAEISKRLGKRWKMLKDSEKIPFIREAERLRLKHMADYPDYK

Variants of: B1
Assay: abundance fitness (aPCA) (normalised: wild type 0, dead -1); higher = more abundant; growth selection in yeast, the domain comes from the species named
Details: Homo sapiens

Abundance fitness of substitutions, site by site:
L34: S -0.719 | P -0.222 | M -0.547 | A -0.938 | R -0.763 | Q -0.638 | H -0.846 | W -0.909 | V -0.531 | E -0.891 | F -0.68 | K -1.29 | N -0.82 | Y -0.826 | C -0.522 | D -0.685
K36: Y 0.041 | V 0.052 | A 0.084 | R -0.011 | I 0.199 | M -0.047 | H -0.036 | C -0.166 | W -0.535 | T 0.155 | G -0.219 | N 0.094 | L 0.034 | F -0.149 | D 0.247 | P -0.868
S44: C -0.089
R33: Y 0.167
K39: M -0.211 | D 0.008 | W -1.03 | E -0.075 | G -0.084 | Y -0.683 | L -0.274 | F -0.455 | N -0.045 | S -0.148 | H -0.473 | Q 0.05 | R -0.119 | P -0.868 | C -0.452 | V -0.395
R37: E 0.188 | I -0.123 | N 0.001 | V -0.271 | W -0.418 | Q 0.073 | C -0.346 | P -1.13 | Y -0.59 | D -0.27 | L -0.085 | T 0.205 | H -0.129 | F -0.764 | A 0.117 | M -0.058 | G 0.01 | K -0.039
D43: M -0.079 | F -0.047 | V -0.397 | I -0.272 | H -0.129 | E -0.127 | P 0.009 | Y -0.191 | L -0.077 | S -0.339 | K -0.205 | G -0.402 | C -0.448
M40: K 0.29 | W -0.503
